In article PMC2873477, “Reconstruction of xylose utilization pathway and regulons in Firmicutes” (BMC Genomics, 2010):

Experiments:
[1] = target: T1, XylR (Clostridium acetobutylicum ATCC 824) (UniProt Q97D10); assay: EMSA; conditions: 10 mM Tris pH 7.5, 50 mM KCl, 1 mM DTT, 2.5% glycerol, 5 mM MgCl2, 0.05% NP-40, 2 ug salmon sperm DNA in 20 ul, 28 C 20 min; 6% native PAGE 0.5x TBE at 4 C
T1 sequence: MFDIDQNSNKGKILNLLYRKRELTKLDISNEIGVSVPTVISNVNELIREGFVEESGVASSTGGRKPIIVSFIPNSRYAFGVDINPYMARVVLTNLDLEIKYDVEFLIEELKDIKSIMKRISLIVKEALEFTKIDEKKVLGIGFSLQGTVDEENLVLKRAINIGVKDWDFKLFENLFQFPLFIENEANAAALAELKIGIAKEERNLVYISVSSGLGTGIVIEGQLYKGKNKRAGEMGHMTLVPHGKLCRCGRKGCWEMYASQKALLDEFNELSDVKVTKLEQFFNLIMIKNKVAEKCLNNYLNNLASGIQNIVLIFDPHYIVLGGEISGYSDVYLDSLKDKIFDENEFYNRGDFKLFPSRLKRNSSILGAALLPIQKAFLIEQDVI

[2] = target: T2, XylB (Clostridium acetobutylicum, UniProt Q97FW4); assay: coupled pyruvate kinase / lactate dehydrogenase assay, NADH at […] nm; assay type: biochemical; conditions: 50 mM Tris pH 7.5, 10 mM MgSO4, 1.2 mM ATP, 1 mM D-xylulose
T2 construct: full-length coding region, N-terminal His6 tag (pET28a), E. coli BL21(DE3), Ni-NTA purified
T2 sequence (Q97FW4 1-500): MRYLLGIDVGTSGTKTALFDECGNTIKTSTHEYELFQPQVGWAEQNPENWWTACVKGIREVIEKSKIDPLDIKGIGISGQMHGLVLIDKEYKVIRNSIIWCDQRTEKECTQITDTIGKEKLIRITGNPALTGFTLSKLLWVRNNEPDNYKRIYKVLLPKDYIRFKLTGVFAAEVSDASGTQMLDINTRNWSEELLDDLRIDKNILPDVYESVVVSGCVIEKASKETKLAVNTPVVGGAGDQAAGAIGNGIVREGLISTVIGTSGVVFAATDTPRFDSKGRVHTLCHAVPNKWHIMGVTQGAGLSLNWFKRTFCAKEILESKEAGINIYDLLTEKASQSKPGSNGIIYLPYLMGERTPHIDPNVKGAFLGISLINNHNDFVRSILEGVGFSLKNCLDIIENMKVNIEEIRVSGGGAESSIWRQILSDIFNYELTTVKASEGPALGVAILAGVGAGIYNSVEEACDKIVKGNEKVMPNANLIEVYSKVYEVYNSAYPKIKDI

Row | Compound | binding [1] | coupled pyruvate kinase / lactate dehydrogenase assay, NADH at 340 nm [2]
1 | CACCAACCTTAATCACTAGTATTTTACTTTACCTTCATATTGTACCATATACTATATCCCCACAAAAGCCTTTATAAAGTTGTTTTATAAAGTATATATACTATGTATATTTTTTCTTATATAGTTTTAATACAAAAATGAAGTAAAGATATCAATTATATATCTTTACTTCACTTACGT (double strand) [xylR upstream fragment] | binds | 
2 | Nc1ncnc2c1ncn2[C@@H]1O[C@H](COP(=O)(O)OP(=O)(O)OP(=O)(O)O)[C@@H](O)[C@H]1O [ATP] |  | coupling the formation of ADP to the oxidation of NADH to NAD^+
3 | CTCCCCATATAATTTAAATTGGTTTTATTTAAAAAATATCTTACCAATATGATTTAAACTTCTCTAATAAATATATGTTTTTAAAGTTTGTTTAATAAGTTTTTTAGATAATCTACTCTTTAAATAAAAGCGCTCCTACTTTTAACTATTTATATATCTTTTATTTTAGGATAAGCTGAA (double strand) [CAC2611-xylA-II upstream fragment] | binds | 
4 | AATCAAACCCCCTTAATTTTAAATAACTTTTTAAATATCCTTTAATAAGTCTATTTTACTTTTTTTACCTCCTACAGTCAATATGTTTTTGTAAACTTTTTCATTTTATTTATATAATGGCTTATATGGCACTGCATTTCACATAAAAATTGTAATAAAAAAAACTGCCCTTAAATTTTC (double strand) [xylB upstream fragment] | binds | 
